Data taken from the supplement of paper PMC10567573.

B1: TRAF3IP2 (parent)
chain: KQGSMNFRFIPVLFPNAKKEHVPT

Variants of: B1
Assay: protein stability index of a GFP-peptide fusion (GPS, HEK-293T) (PSI 1-6); higher = more stable
Details: c terminus: a fixed tail appended
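Note: lentivirally expressed fusions sorted by FACS into six bins by GFP to DsRed ratio, PSI derived from sequencing read proportions per bin multiplied by bin number.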

Variant | protein stability index
KQVSMNFRFIPVLFPNAKKEHVPT [G3V] | 2.06
KQCSMNFRFIPVLFPNAKKEHVPT [G3C] | 2.06
KQESMNFRFIPVLFPNAKKEHVPT [G3E] | 2.09
KQTSMNFRFIPVLFPNAKKEHVPT [G3T] | 2.44
KQPSMNFRFIPVLFPNAKKEHVPT [G3P] | 1.74
KQGSMNNRFIPVLFPNAKKEHVPT [F7N] | 2.92
KQGSMNGRFIPVLFPNAKKEHVPT [F7G] | 3.01
KQGSMNTRFIPVLFPNAKKEHVPT [F7T] | 2.73
KQGSMNYRFIPVLFPNAKKEHVPT [F7Y] | 2.59
KQGSMNIRFIPVLFPNAKKEHVPT [F7I] | 2.12
KQGSMNWRFIPVLFPNAKKEHVPT [F7W] | 2.23
KQGSMNVRFIPVLFPNAKKEHVPT [F7V] | 2.13
KQGSMNCRFIPVLFPNAKKEHVPT [F7C] | 2.38
KQGSMNDRFIPVLFPNAKKEHVPT [F7D] | 2.91
KQGSMNPRFIPVLFPNAKKEHVPT [F7P] | 3.31
KQGSMNSRFIPVLFPNAKKEHVPT [F7S] | 3.12
KQGSMNERFIPVLFPNAKKEHVPT [F7E] | 3.67
KQGSMNHRFIPVLFPNAKKEHVPT [F7H] | 2.87
KQGSMNQRFIPVLFPNAKKEHVPT [F7Q] | 3.19
KQGSMNLRFIPVLFPNAKKEHVPT [F7L] | 1.91
KQGSMNKRFIPVLFPNAKKEHVPT [F7K] | 3.06
KQGSMNARFIPVLFPNAKKEHVPT [F7A] | 2.95
KQGSMNMRFIPVLFPNAKKEHVPT [F7M] | 2.32
KQGSMNRRFIPVLFPNAKKEHVPT [F7R] | 2.69

Variant | protein stability index
KMGSMNFRFIPVLFPNAKKEHVPT [Q2M] | 1.48
KEGSMNFRFIPVLFPNAKKEHVPT [Q2E] | 2.13
KDGSMNFRFIPVLFPNAKKEHVPT [Q2D] | 1.8
KVGSMNFRFIPVLFPNAKKEHVPT [Q2V] | 1.85
KIGSMNFRFIPVLFPNAKKEHVPT [Q2I] | 2.82
KWGSMNFRFIPVLFPNAKKEHVPT [Q2W] | 2.27
KFGSMNFRFIPVLFPNAKKEHVPT [Q2F] | 1.87
KYGSMNFRFIPVLFPNAKKEHVPT [Q2Y] | 2.08
KPGSMNFRFIPVLFPNAKKEHVPT [Q2P] | 1.93
KGGSMNFRFIPVLFPNAKKEHVPT [Q2G] | 2.66
KRGSMNFRFIPVLFPNAKKEHVPT [Q2R] | 1.47
KAGSMNFRFIPVLFPNAKKEHVPT [Q2A] | 2.47
KLGSMNFRFIPVLFPNAKKEHVPT [Q2L] | 2.23
KSGSMNFRFIPVLFPNAKKEHVPT [Q2S] | 1.82
KKGSMNFRFIPVLFPNAKKEHVPT [Q2K] | 1.91
KHGSMNFRFIPVLFPNAKKEHVPT [Q2H] | 1.63
KTGSMNFRFIPVLFPNAKKEHVPT [Q2T] | 1.84
KNGSMNFRFIPVLFPNAKKEHVPT [Q2N] | 1.91
KCGSMNFRFIPVLFPNAKKEHVPT [Q2C] | 1.8
KQGSMNFREIPVLFPNAKKEHVPT [F9E] | 3.94
KQGSMNFRCIPVLFPNAKKEHVPT [F9C] | 2.15
KQGSMNFRMIPVLFPNAKKEHVPT [F9M] | 2.69
KQGSMNFRIIPVLFPNAKKEHVPT [F9I] | 2.06
KQGSMNFRPIPVLFPNAKKEHVPT [F9P] | 3.22

Variant | protein stability index
KQGSMNFRLIPVLFPNAKKEHVPT [F9L] | 2.44
KQGSMNFRQIPVLFPNAKKEHVPT [F9Q] | 3.3
KQGSMNFRHIPVLFPNAKKEHVPT [F9H] | 3.38
KQGSMNFRNIPVLFPNAKKEHVPT [F9N] | 3.56
KQGSMNFRDIPVLFPNAKKEHVPT [F9D] | 3.99
KQGSMNFRGIPVLFPNAKKEHVPT [F9G] | 3.17
KQGSMNFRKIPVLFPNAKKEHVPT [F9K] | 3.41
KQGSMNFRAIPVLFPNAKKEHVPT [F9A] | 3.43
QQGSMNFRFIPVLFPNAKKEHVPT [K1Q] | 1.88
IQGSMNFRFIPVLFPNAKKEHVPT [K1I] | 1.63
PQGSMNFRFIPVLFPNAKKEHVPT [K1P] | 1.88
RQGSMNFRFIPVLFPNAKKEHVPT [K1R] | 2.31
WQGSMNFRFIPVLFPNAKKEHVPT [K1W] | 2.08
GQGSMNFRFIPVLFPNAKKEHVPT [K1G] | 2.19
AQGSMNFRFIPVLFPNAKKEHVPT [K1A] | 2.02
YQGSMNFRFIPVLFPNAKKEHVPT [K1Y] | 2.57
EQGSMNFRFIPVLFPNAKKEHVPT [K1E] | 2.7
CQGSMNFRFIPVLFPNAKKEHVPT [K1C] | 2.01
HQGSMNFRFIPVLFPNAKKEHVPT [K1H] | 2.17
DQGSMNFRFIPVLFPNAKKEHVPT [K1D] | 2.02
TQGSMNFRFIPVLFPNAKKEHVPT [K1T] | 2.32
MQGSMNFRFIPVLFPNAKKEHVPT [K1M] | 1.94
LQGSMNFRFIPVLFPNAKKEHVPT [K1L] | 1.51
VQGSMNFRFIPVLFPNAKKEHVPT [K1V] | 1.95

Variant | protein stability index
NQGSMNFRFIPVLFPNAKKEHVPT [K1N] | 1.94
SQGSMNFRFIPVLFPNAKKEHVPT [K1S] | 2.16
FQGSMNFRFIPVLFPNAKKEHVPT [K1F] | 2.23
KQGSMNFHFIPVLFPNAKKEHVPT [R8H] | 2.41
KQGSMNFVFIPVLFPNAKKEHVPT [R8V] | 2.02
KQGSMNFAFIPVLFPNAKKEHVPT [R8A] | 1.78
KQGSMNFGFIPVLFPNAKKEHVPT [R8G] | 1.9
KQGSMNFPFIPVLFPNAKKEHVPT [R8P] | 2.68
KQGSMNFCFIPVLFPNAKKEHVPT [R8C] | 2.52
KQGSMNFFFIPVLFPNAKKEHVPT [R8F] | 1.61
KQGSMNFNFIPVLFPNAKKEHVPT [R8N] | 2.8
KQGSMNFMFIPVLFPNAKKEHVPT [R8M] | 1.88
KQGSMNFDFIPVLFPNAKKEHVPT [R8D] | 3.3
KQGSMNFLFIPVLFPNAKKEHVPT [R8L] | 2.22
KQGSMNFTFIPVLFPNAKKEHVPT [R8T] | 2.04
KQGSMNFEFIPVLFPNAKKEHVPT [R8E] | 3.28
KQGSMNFQFIPVLFPNAKKEHVPT [R8Q] | 3.08
KQGSMNFKFIPVLFPNAKKEHVPT [R8K] | 2.61
KQGSMNFYFIPVLFPNAKKEHVPT [R8Y] | 2.09
KQGSMNFSFIPVLFPNAKKEHVPT [R8S] | 2.39
KQGSMNFWFIPVLFPNAKKEHVPT [R8W] | 2.44
KQGSMNFIFIPVLFPNAKKEHVPT [R8I] | 2.88
